{"source": "paper PMC2255029", "about": "“UV-A-induced structural and functional changes in human lens deamidated αB-crystallin” (Molecular Vision, 2008)", "proteins": {"B1": {"name": "wild type (WT) αB-crystallin (natural protein, human, UniProt P02511 1-175, looked up)", "chain": "MDIAIHHPWIRRPFFPFHSPSRLFDQFFGEHLLESDLFPTSTSLSPFYLRPPSFLRAPSWFDTGLSEMRLEKDRFSVNLDVKHFSPEELKVKVLGDVIEVHGKHEERQDEHGFISREFHRKYRIPADVDPLTITSSLSSDGVLTVNGPRKQVSGPERTIPITREEKPAVTAAPKK", "notes": "αB-crystallin, human, 175 amino acid residues; cDNA cloned in plasmid pDIRECT; Oligomer; Also used after UV-A exposure (320-400 nm; 20 or 50 J/cm^2), which oxidises Met and/or Trp residues and partly degrades the protein; source: E. coli BL21 (DE3) pLysS, purified (DEAE-Sephacel, Butyl-Sepharose, size-exclusion HPLC)"}, "B2": {"name": "αB-Asn78/146Asp deamidated double mutant protein (natural protein, human, UniProt P02511 1-175, looked up)", "chain": "B1 chain with N78D, N146D", "notes": "αB-crystallin, human, 175 amino acid residues; cDNA cloned in plasmid pDIRECT; both Asn78 and Asn146 changed to Asp by site-directed mutagenesis; Mimics deamidation of Asn78 and Asn146; Also used after UV-A exposure; source: E. coli BL21 (DE3) pLysS, purified (DEAE-Sephacel, Butyl-Sepharose, size-exclusion HPLC)"}, "B3": {"name": "αB-Asn146Asp deamidated mutant protein (natural protein, human, UniProt P02511 1-175, looked up)", "chain": "B1 chain with N146D", "notes": "αB-crystallin, human, 175 amino acid residues; cDNA cloned in plasmid pDIRECT; Asn146 changed to Asp by site-directed mutagenesis; Mimics deamidation of Asn146; Also used after UV-A exposure; source: E. coli BL21 (DE3) pLysS, purified (DEAE-Sephacel, Butyl-Sepharose, size-exclusion HPLC)"}, "B4": {"name": "αB-Asn78Asp deamidated mutant protein (natural protein, human, UniProt P02511 1-175, looked up)", "chain": "B1 chain with N78D", "notes": "αB-crystallin, human, 175 amino acid residues; cDNA cloned in plasmid pDIRECT; Asn78 changed to Asp by site-directed mutagenesis; Mimics deamidation of Asn78; Also used after UV-A exposure; source: E. coli BL21 (DE3) pLysS, purified (DEAE-Sephacel, Butyl-Sepharose, size-exclusion HPLC)"}}, "note": "Substitutions are numbered along the chain they refer to.", "data": [{"biological_target": "the molecule itself", "assay": "cross-linking; UV-A irradiation (320-400 nm; 20 and 50 J/cm^2, about 5 °C, 50 mM phosphate buffer, pH 7.5) of the purified protein, then SDS-PAGE after treatment with 150 mM β-mercaptoethanol; 40 kDa species", "values": [{"protein": "B1", "stoichiometry N": 2}, {"protein": "B2", "stoichiometry N": 2}, {"protein": "B3", "stoichiometry N": 2}, {"protein": "B4", "stoichiometry N": 2}]}]}
